Results taken from US20220331371A1, “DEVELOPMENT OF EMBRYONIC-LIKE TISSUE FROM STEM CELLS” (The Regents of the University of Michigan, priority 2019, published 2022).

Tested on: embryonic-like sacs (P-ELS, A-ELS)
Experiment: Microfluidic generation of asymmetric embryonic-like sacs with morphogens in the induction channel
Assay type: cell-based, human
Conditions: for Cyst phenotype obtained: 50 ng ml^−1 each, supplemented into the induction channel
Source text: Cell lines. hPSC lines used in this study include H1 human ES cell (WA01, WiCell; NIH registration number: 0043), H9 human ES cell (WA09, WiCell; NIH registration number: 0062) and 1196a (a human iPSC line from the University of Michigan Pluripotent Stem Cell Core31). All hPSC lines have been authenticated by original sources as well as in-house by immunostaining for pluripotency markers and successful differentiation to the three germ layers. All hPSC lines are maintained in a feeder-free system for at least ten passages and authenticated as karyotypically normal. Karyotype analysis was performed by Cell Line Genetics. All hPSC lines are tested negative for mycoplasma contamination (LookOut Mycoplasma PCR Detection Kit, Sigma-Aldrich). Cell culture. hPSCs were maintained in a standard feeder-free culture system using mTeSR medium (mTeSR; STEMCELL Technologies) or TeSR-E8 medium (Essential 8 or E8; STEMCELL Technologies) and lactate dehydrogenase-elevating virus (LDEV)-free, human ES cell-qualified reduced growth factor basement membrane matrix Geltrex (Thermo Fisher Scientific; derived from Engelbreth-Holm-Swarm tumors similarly to Matrigel). Cell cultures were visually examined during each passage to ensure absence of spontaneously differentiated, mesenchymal-like cells in culture. All hPSCs were used before reaching P70. Device fabrication. The microfluidic device consists of a polydimethylsiloxane (PDMS) structure layer bonded to a coverslip. The PDMS structure layer is made by mixing PDMS curing agent and base polymer (Sylgard 184; Dow Coming) at a ratio of 1:10 before casting PDMS prepolymer onto a microfabricated silicon mold and baking at 110° C. for 40 min. Medium reservoirs (8 mm in diameter) and gel-loading ports (1.2 mm in diameter) were then punched into the PDMS structure layer using Harris Uni-Core punch tools (Ted Pella). After cleaning with ethanol and air plasma activation, the PDMS structure layer was bonded to a coverslip before baking at 80° C. overnight. Before usage, the microfluidic device was sterilized under UV light for 30 min. Geltrex diluted in mTeSR (8 mg ml^−1) was then injected into the central gel channel and allowed to cure for 10 min at 37° C. in an incubator. The central gel channel was separated from the cell loading and induction channels by trapezoid-shaped supporting posts. Diluted Geltrex matrix was contained in the gel channel by supporting posts owing to surface tension. Upon gelation, Geltrex matrix contracts, generating concave Geltrex pockets between supporting posts. mTeSR medium was immediately added to medium reservoirs to fill both the cell loading and induction channels. The microfluidic device was then incubated at 37° C. and 5% CO2, for 24 h to stabilize the Geltrex matrix in the gel channel. Microfluidic assays. Colonies of hPSCs were dissociated by Accutasc. (Sigma-Aldrich) at 37° C., for 10 min before being suspended in mTeSR as single cells. Cells were then centrifuged and resuspended in mTeSR, containing 10 μM Y27632 (Tocris), a ROCK inhibitor that prevents dissociation-induced apoptosis of hPSCs32, at a concentration of 8×10^6 cells per ml. After aspirating mTeSR from medium reservoirs, 10 μl hPSC suspension was introduced into the cell-loading channel (t=−18 h), The microfluidic device was then tilted 90° for 10 min to allow cell settlement into Geltrex pockets and their clustering and adhesion to Geltrex matrix. Medium reservoirs were then refilled with fresh mTeSR medium containing 10 μM Y27632. […]

Row | Molecule | Cyst phenotype obtained | Cysts differentiated into asymmetrical E-cadherin+ sacs (P-ELS) (BMP4 50 ng ml^−1 in induction channel from t=0 h, t=36 h) [%] | Cysts patterned to amniotic ectoderm-like fate (A-ELS) (BMP4 in induction channel, IWP2 and noggin in cell-loading channel, t=36 h) [%] | Requirement for embryonic-like sac formation (induction channel, with or without BMP4)
1 | Activin A: exogenous activin protein (R&D Systems) (protein, UniProt P08476 311-426, looked up, Inhibin beta A chain) Inhibin beta A chain: GLECDGKVNICCKKQFFVSFKDIGWNDWIIAPSGYHANYCEGECPSHIAGTSGSSLSFHSTVINHYRMRGHSPFANLKSCCVPTKLRPMSMLYYDDGQNIIKKDIQNMIVEECGCS | cysts containing OCT4^+NANOG^+EPILCs intermixed with EOMES^+T^+CDX2^− anterior primitive streak-like cells | – | – | –
2 | BMP4: Bone Morphogenic Protein 4 (R&D Systems) (protein, UniProt P12644 293-408, looked up) Bone morphogenetic protein 4: SPKHHSQRARKKNKNCRRHSLYVDFSDVGWNDWIVAPPGYQAFYCHGDCPFPLADHLNSTNHAIVQTLVNSVNSSIPKACCVPTELSAISMLYLDEYDKVVLKNYQEMVVEGCGCR | – | 92 | 96 | –
3 | WNT3A: exogenous Wnt protein (R&D Systems) (protein, UniProt P56704 19-352, looked up) Protein Wnt-3a: SYPIWWSLAVGPQYSSLGSQPILCASIPGLVPKQLRFCRNYVEIMPSVAEGIKIGIQECQHQFRGRRWNCTTVHDSLAIFGPVLDKATRESAFVHAIASAGVAFAVTRSCAEGTAAICGCSSRHQGSPGKGWKWGGCSEDIEFGGMVSREFADARENRPDARSAMNRHNNEAGRQAIASHMHLKCKCHGLSGSCEVKTCWWSQPDFRAIGDFLKDKYDSASEMVVEKHRESRGWVETLRPRYTYFKVPTERDLVYYEASPNFCEPNPETGSFGTRDRTCNVSSHGIDGCDLLCCGRGHNARAERRREKCRCVFHWCCYVSCQECTRVYDVHTCK | columnar epiblast-like cysts containing OCT4^+NANOG^+, COX2^−EOMES^−T^− EPILCs | – | – | dispensable
